system: peptide library, one residue held at a place counted from the S/T acceptor; assay: relative phosphorylation of the sub-library (ratio to the mean residue at this position); human; higher = residue favoured; settings: pThr fixed; at -4
Procedure, shortened: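 Relative sub-library phosphorylation is the ratio of each sub-library's signal to the mean residue at that position. The signal came from phosphorimaging of spots on streptavidin membranes, quantified by densitometry, after purified recombinant kinases reacted with biotinylated degenerate peptide sub-libraries in 384-well plates. Reactions held 50 μM peptide and 50 μM ATP spiked with γ-32P-ATP for 90 min under kinase-specific conditions.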

MAP4K3, construct: aa1-380, sequence (Q8IVH8 1-380, looked up): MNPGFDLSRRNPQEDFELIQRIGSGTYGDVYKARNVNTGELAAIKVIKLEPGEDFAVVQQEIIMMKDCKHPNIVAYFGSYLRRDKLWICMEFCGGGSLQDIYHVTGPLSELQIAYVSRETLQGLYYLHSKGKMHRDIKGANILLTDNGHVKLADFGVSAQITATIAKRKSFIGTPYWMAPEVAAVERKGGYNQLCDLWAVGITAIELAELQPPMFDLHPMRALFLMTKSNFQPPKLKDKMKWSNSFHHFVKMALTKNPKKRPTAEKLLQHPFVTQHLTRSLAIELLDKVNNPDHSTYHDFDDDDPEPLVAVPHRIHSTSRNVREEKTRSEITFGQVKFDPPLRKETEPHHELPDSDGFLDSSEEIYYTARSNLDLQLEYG
EIF2AK1, construct: Full length, sequence (Q9BQI3 whole entry, looked up): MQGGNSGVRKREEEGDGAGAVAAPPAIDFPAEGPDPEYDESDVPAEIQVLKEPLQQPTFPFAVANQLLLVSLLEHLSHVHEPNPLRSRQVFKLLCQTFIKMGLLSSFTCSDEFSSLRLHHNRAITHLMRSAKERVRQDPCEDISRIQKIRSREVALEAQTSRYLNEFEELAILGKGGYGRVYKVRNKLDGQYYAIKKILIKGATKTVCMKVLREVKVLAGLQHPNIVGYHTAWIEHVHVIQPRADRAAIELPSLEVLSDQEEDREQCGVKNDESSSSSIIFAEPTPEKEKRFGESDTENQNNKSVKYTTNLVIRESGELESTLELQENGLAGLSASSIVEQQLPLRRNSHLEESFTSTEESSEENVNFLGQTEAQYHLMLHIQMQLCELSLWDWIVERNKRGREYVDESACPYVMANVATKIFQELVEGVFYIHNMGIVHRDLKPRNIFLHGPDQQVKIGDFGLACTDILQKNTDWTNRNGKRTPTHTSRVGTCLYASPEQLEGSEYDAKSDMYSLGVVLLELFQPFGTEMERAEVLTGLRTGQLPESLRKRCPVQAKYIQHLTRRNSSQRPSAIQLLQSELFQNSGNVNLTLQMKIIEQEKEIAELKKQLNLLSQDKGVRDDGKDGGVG
CAMK1, construct: Full length, sequence (Q14012 whole entry, looked up): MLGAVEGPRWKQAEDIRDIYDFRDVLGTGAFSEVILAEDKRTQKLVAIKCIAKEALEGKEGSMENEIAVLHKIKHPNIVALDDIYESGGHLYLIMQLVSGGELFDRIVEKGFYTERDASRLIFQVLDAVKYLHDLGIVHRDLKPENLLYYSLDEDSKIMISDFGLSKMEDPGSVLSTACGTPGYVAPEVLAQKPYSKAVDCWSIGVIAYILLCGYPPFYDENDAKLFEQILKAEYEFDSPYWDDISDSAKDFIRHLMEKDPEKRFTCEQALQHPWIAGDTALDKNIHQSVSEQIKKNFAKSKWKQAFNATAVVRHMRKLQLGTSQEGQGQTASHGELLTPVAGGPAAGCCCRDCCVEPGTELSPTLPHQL
MAP3K10, construct: aa1-449, sequence (Q02779 1-449, looked up): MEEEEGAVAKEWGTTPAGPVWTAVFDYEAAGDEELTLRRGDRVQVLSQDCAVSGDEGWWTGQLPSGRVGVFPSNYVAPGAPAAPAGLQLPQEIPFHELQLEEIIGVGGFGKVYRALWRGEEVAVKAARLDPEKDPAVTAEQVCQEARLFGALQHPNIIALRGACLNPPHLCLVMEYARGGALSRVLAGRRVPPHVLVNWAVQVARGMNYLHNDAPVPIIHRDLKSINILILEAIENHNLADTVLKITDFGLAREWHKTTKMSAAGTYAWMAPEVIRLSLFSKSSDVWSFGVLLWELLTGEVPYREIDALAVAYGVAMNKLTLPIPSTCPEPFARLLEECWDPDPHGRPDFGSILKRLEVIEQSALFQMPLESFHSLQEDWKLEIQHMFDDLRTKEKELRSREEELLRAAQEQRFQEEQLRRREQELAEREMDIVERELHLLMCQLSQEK
MOK, construct: aa1-343, sequence (Q9UQ07 1-343, looked up): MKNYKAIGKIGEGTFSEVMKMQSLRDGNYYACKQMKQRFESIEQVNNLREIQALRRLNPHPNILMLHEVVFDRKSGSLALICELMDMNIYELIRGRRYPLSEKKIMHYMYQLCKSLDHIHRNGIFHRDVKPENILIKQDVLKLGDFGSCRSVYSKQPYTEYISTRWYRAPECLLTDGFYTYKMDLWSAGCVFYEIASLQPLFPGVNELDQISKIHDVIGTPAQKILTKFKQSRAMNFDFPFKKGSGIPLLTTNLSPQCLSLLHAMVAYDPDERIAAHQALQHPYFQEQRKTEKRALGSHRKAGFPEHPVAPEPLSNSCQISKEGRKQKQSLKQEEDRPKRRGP
CHEK2, construct: Full length, sequence (O96017 whole entry, looked up): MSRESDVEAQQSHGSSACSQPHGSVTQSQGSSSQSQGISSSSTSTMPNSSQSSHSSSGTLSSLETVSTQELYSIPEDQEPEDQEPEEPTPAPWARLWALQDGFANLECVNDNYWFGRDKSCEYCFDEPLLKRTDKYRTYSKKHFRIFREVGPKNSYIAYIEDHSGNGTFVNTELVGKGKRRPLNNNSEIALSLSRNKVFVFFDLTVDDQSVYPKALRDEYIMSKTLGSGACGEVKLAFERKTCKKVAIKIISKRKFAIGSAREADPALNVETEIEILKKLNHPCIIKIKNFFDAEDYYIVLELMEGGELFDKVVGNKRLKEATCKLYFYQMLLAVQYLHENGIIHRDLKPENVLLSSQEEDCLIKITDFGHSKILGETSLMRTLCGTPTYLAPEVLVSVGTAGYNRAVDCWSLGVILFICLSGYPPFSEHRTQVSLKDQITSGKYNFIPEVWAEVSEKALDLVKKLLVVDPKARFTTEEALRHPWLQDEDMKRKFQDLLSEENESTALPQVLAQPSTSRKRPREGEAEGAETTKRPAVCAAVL
TTBK1, construct: Full length, sequence (Q5TCY1 whole entry, looked up): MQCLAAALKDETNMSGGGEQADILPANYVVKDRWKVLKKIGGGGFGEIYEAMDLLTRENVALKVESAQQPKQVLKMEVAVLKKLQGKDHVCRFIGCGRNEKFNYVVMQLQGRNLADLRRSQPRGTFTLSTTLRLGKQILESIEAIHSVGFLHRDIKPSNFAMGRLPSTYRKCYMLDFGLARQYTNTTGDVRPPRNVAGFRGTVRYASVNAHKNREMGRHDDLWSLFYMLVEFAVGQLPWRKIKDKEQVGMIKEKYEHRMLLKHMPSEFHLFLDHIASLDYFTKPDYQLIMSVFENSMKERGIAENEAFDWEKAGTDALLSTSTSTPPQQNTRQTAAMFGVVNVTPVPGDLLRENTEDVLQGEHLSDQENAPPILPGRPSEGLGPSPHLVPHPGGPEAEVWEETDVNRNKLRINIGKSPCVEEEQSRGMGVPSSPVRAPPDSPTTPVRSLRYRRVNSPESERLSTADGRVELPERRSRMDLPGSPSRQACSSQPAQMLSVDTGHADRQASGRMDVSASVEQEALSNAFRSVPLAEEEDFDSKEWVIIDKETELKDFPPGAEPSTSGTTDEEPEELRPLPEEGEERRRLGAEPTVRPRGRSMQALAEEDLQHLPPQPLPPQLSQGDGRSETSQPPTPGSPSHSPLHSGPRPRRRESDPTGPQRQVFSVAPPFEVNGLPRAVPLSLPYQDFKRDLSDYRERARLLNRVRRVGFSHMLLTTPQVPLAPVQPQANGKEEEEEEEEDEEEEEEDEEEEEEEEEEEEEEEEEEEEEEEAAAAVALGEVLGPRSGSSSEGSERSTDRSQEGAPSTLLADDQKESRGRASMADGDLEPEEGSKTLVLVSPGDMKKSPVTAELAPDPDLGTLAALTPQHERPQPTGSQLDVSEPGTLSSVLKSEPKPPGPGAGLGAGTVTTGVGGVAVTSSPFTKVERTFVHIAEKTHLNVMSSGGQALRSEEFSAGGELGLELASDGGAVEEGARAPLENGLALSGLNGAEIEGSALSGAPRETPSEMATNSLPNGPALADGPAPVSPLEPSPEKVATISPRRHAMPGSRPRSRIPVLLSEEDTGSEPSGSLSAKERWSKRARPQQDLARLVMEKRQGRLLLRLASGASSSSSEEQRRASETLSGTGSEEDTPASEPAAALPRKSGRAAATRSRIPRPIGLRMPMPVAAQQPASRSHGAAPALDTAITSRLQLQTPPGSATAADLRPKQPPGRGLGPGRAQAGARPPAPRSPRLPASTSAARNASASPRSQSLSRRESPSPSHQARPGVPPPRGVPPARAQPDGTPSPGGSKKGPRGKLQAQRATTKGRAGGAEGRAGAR

Row | Substance | relative phosphorylation
1 | CHEK2, construct: Full length (from UniProt O96017) | 0.662
2 | MAP4K3, construct: aa1-380 (from UniProt Q8IVH8) | 1.13
3 | CAMK1, construct: Full length (from UniProt Q14012) | 0.389
4 | MAP3K10, construct: aa1-449 (from UniProt Q02779) | 0.914
5 | EIF2AK1, construct: Full length (from UniProt Q9BQI3) | 0.647
6 | PKN3, construct: Full length (from UniProt Q6P5Z2) | 0.645

same assay, conditions: pThr fixed; at -5

Row | Substance | relative phosphorylation
7 | MOK, construct: aa1-343 (from UniProt Q9UQ07) | 0.775
8 | TTBK1, construct: Full length (from UniProt Q5TCY1) | 1.03
9 | CHEK2, construct: Full length (from UniProt O96017) | 0.472
10 | MAP4K3, construct: aa1-380 (from UniProt Q8IVH8) | 1.32
11 | CAMK1, construct: Full length (from UniProt Q14012) | 0.248
12 | MAP3K10, construct: aa1-449 (from UniProt Q02779) | 0.992
13 | EIF2AK1, construct: Full length (from UniProt Q9BQI3) | 0.631
14 | PKN3, construct: Full length (from UniProt Q6P5Z2) | 0.581

same assay, conditions: pTyr fixed; at +1

Row | Substance | relative phosphorylation
15 | MOK, construct: aa1-343 (from UniProt Q9UQ07) | 0.334
16 | TTBK1, construct: Full length (from UniProt Q5TCY1) | 1.48
17 | CHEK2, construct: Full length (from UniProt O96017) | 0.529
18 | MAP4K3, construct: aa1-380 (from UniProt Q8IVH8) | 0.355
19 | CAMK1, construct: Full length (from UniProt Q14012) | 0.654
20 | MAP3K10, construct: aa1-449 (from UniProt Q02779) | 0.455
21 | EIF2AK1, construct: Full length (from UniProt Q9BQI3) | 0.536
22 | PKN3, construct: Full length (from UniProt Q6P5Z2) | 0.695

same assay, conditions: pTyr fixed; at +2

Row | Substance | relative phosphorylation
23 | MOK, construct: aa1-343 (from UniProt Q9UQ07) | 0.447
24 | TTBK1, construct: Full length (from UniProt Q5TCY1) | 12.4
25 | CHEK2, construct: Full length (from UniProt O96017) | 0.489
26 | MAP4K3, construct: aa1-380 (from UniProt Q8IVH8) | 0.389
27 | CAMK1, construct: Full length (from UniProt Q14012) | 1.94
28 | MAP3K10, construct: aa1-449 (from UniProt Q02779) | 0.311
29 | EIF2AK1, construct: Full length (from UniProt Q9BQI3) | 0.481
30 | PKN3, construct: Full length (from UniProt Q6P5Z2) | 0.952

same assay, conditions: pTyr fixed; at +3

Row | Substance | relative phosphorylation
31 | MOK, construct: aa1-343 (from UniProt Q9UQ07) | 0.651
32 | TTBK1, construct: Full length (from UniProt Q5TCY1) | 1.22
33 | CHEK2, construct: Full length (from UniProt O96017) | 0.659
34 | MAP4K3, construct: aa1-380 (from UniProt Q8IVH8) | 0.637
35 | CAMK1, construct: Full length (from UniProt Q14012) | 0.848
36 | MAP3K10, construct: aa1-449 (from UniProt Q02779) | 0.519
37 | EIF2AK1, construct: Full length (from UniProt Q9BQI3) | 0.569
38 | PKN3, construct: Full length (from UniProt Q6P5Z2) | 0.825

same assay, conditions: pTyr fixed; at +4

Row | Substance | relative phosphorylation
39 | MOK, construct: aa1-343 (from UniProt Q9UQ07) | 0.45
40 | TTBK1, construct: Full length (from UniProt Q5TCY1) | 0.697
41 | CHEK2, construct: Full length (from UniProt O96017) | 0.575
42 | MAP4K3, construct: aa1-380 (from UniProt Q8IVH8) | 0.486
43 | CAMK1, construct: Full length (from UniProt Q14012) | 0.605
44 | MAP3K10, construct: aa1-449 (from UniProt Q02779) | 0.452
45 | EIF2AK1, construct: Full length (from UniProt Q9BQI3) | 0.607
46 | PKN3, construct: Full length (from UniProt Q6P5Z2) | 0.807

same assay, conditions: pTyr fixed; at -1

Row | Substance | relative phosphorylation
47 | MOK, construct: aa1-343 (from UniProt Q9UQ07) | 0.354
48 | TTBK1, construct: Full length (from UniProt Q5TCY1) | 0.613
49 | CHEK2, construct: Full length (from UniProt O96017) | 0.603
50 | MAP4K3, construct: aa1-380 (from UniProt Q8IVH8) | 0.516
51 | CAMK1, construct: Full length (from UniProt Q14012) | 0.604
52 | MAP3K10, construct: aa1-449 (from UniProt Q02779) | 0.862
53 | EIF2AK1, construct: Full length (from UniProt Q9BQI3) | 2.17
54 | PKN3, construct: Full length (from UniProt Q6P5Z2) | 0.585

same assay, conditions: pTyr fixed; at -2

Row | Substance | relative phosphorylation
55 | MOK, construct: aa1-343 (from UniProt Q9UQ07) | 0.268
56 | TTBK1, construct: Full length (from UniProt Q5TCY1) | 2.31
57 | CHEK2, construct: Full length (from UniProt O96017) | 0.4
58 | MAP4K3, construct: aa1-380 (from UniProt Q8IVH8) | 0.763
59 | CAMK1, construct: Full length (from UniProt Q14012) | 0.361
60 | MAP3K10, construct: aa1-449 (from UniProt Q02779) | 0.525
61 | EIF2AK1, construct: Full length (from UniProt Q9BQI3) | 0.943
62 | PKN3, construct: Full length (from UniProt Q6P5Z2) | 0.662

same assay, conditions: pTyr fixed; at -3

Row | Substance | relative phosphorylation
63 | MOK, construct: aa1-343 (from UniProt Q9UQ07) | 0.329
64 | TTBK1, construct: Full length (from UniProt Q5TCY1) | 2.58
65 | CHEK2, construct: Full length (from UniProt O96017) | 0.178
66 | MAP4K3, construct: aa1-380 (from UniProt Q8IVH8) | 1.04
67 | CAMK1, construct: Full length (from UniProt Q14012) | 0.473
68 | MAP3K10, construct: aa1-449 (from UniProt Q02779) | 0.707
69 | EIF2AK1, construct: Full length (from UniProt Q9BQI3) | 0.981
70 | PKN3, construct: Full length (from UniProt Q6P5Z2) | 0.902

same assay, conditions: pTyr fixed; at -4

Row | Substance | relative phosphorylation
71 | MOK, construct: aa1-343 (from UniProt Q9UQ07) | 0.473
72 | TTBK1, construct: Full length (from UniProt Q5TCY1) | 1.76
73 | CHEK2, construct: Full length (from UniProt O96017) | 0.574
74 | MAP4K3, construct: aa1-380 (from UniProt Q8IVH8) | 0.852
75 | CAMK1, construct: Full length (from UniProt Q14012) | 0.445
76 | MAP3K10, construct: aa1-449 (from UniProt Q02779) | 0.616
77 | EIF2AK1, construct: Full length (from UniProt Q9BQI3) | 0.732
78 | PKN3, construct: Full length (from UniProt Q6P5Z2) | 0.676

same assay, conditions: pTyr fixed; at -5

Row | Substance | relative phosphorylation
79 | MOK, construct: aa1-343 (from UniProt Q9UQ07) | 0.804
80 | TTBK1, construct: Full length (from UniProt Q5TCY1) | 1.35
81 | CHEK2, construct: Full length (from UniProt O96017) | 0.725
82 | MAP4K3, construct: aa1-380 (from UniProt Q8IVH8) | 1.16
83 | CAMK1, construct: Full length (from UniProt Q14012) | 0.461
84 | MAP3K10, construct: aa1-449 (from UniProt Q02779) | 0.73
85 | EIF2AK1, construct: Full length (from UniProt Q9BQI3) | 0.792
86 | PKN3, construct: Full length (from UniProt Q6P5Z2) | 0.781

Reference: the supplement of paper PMC9876800
